Measurements reported in paper PMC7416112 (Structure(London, England:1993), 2020).

How the values were obtained:
Assay in all cases: BLI
[1] = target: BG505 SOSIP.v4.1-2XStrep N332 N339Q (HIV-1 (BG505))
[2] = target: BG505 SOSIP.v4.1-2XStrep N332 N363Q (HIV-1 (BG505))
[3] = target: BG505 SOSIP.v4.1-2XStrep N332 N386Q (HIV-1 (BG505))
[4] = target: BG505 SOSIP.v4.1-2XStrep N332 N392Q (HIV-1 (BG505))
[5] = target: BG505 SOSIP.v4.1-2XStrep (N332) (HIV-1 (BG505))
[6] = target: BG505 SOSIP.v4.1-2XStrep N332 N295Q (HIV-1 (BG505))
[7] = target: BG505 SOSIP.v4.1-2XStrep T332 (HIV-1 subtype A, BG505, UniProt Q2N0S6, stabilised); conditions: both partners purified

Molecule	Kd [1]	Kd [2]	Kd [3]	Kd [4]	Kd [5]	Kd [6]	Kd [7]	koff [7]	kon [7]
2G12 Fab2	7.35 nM	3.99 nM	3.15 nM	16.8 nM	4.25 nM	11.4 nM	–	–	–
2G12 Fab2 (Fab, V domains shown, also called 2G12 bnAb; copies: 2 + 2) VH: EVQLVESGGGLVKAGGSLILSCGVSNFRISAHTMNWVRRVPGGGLEWVASISTSSTYRDYADAVKGRFTVSRDDLEDFVYLQMHKMRVEDTAIYYCARKGSDRLSDNDPFDAWGPGTVVTVSP VL: DVVMTQSPSTLSASVGDTITITCRASQSIETWLAWYQQKPGKAPKLLIYKASTLKTGVPSRFSGSGSGTEFTLTISGLQFDDFATYHCQHYAGYSATFGQGTRVEIK	–	–	–	–	–	–	22.9 nM	0.00558 s⁻¹	244000 M⁻¹ s⁻¹
